Laboratory results as given in PMC10144703, “Molecular Mechanism of Sirtuin 1 Inhibition by Human Immunodeficiency Virus 1 Tat Protein” (Life, 2023).
Where no end group is shown, it is not given here.

B1: human mini-Sirt1 (aa 183-505-(GGGS)2-641-665) (enzyme)
chain: GPYTFVQQHLMIGTDPRTILKDLLPETIPPPELDDMTLWQIVINILSEPPKRKKRKDINTIEDAVKLLQECKKIIVLTGAGVSVSCGIPDFRSRDGIYARLAVDFPDLPDPQAMFDIEYFRKDPRPFFKFAKEIYPGQFQPSLCHKFIALSDKEGKLLRNYTQNIDTLEQVAGIQRIIQCHGSFATASCLICKYKVDCEAVRGDIFNQVVPRCPRCPADEPLAIMKPEIVFFGENLPEQFHRAMKYDKDEVDLLIVIGSSLKVRPVALIPSSIPHEVPQILINREPLPHLHFDVELLGDCDVIINELCHRLGGEYAKLCCNPVGGGSGGGSQYLFLPPNRYIFHGAEVYSDSEDDV
notes: artificial linker, printed as (GGGS)2; human Sirt1, residues 641-665 (ESA region); Modified pET-19b with TEV cleavage site; source: E. coli CodonPlus(DE3), purified (nickel NTA, protease digestion, second nickel NTA, SEC)
B2: Tat-Cys^−-(1–86), full-length HIV1 Tat (Zaire 2 isolate) with its 7 Cys residues replaced by Ser/Ala (natural protein)
chain: MDPVDPNIEPWNHPGSQPKTASNRAHAKKSAYHSQVAFITKGLGISYGRKKRRQRRRPSQGGQTHQDPIPKQPSSQPRGDPTGPKE

Columns and labels:
[1] = target: B2; test: NMR titration; unlabeled mini-Sirt1 (stock 260 µM) added stepwise to 100 µM 15N-labeled Tat-Cys^−; 150 mM sodium chloride, 10 mM potassium phosphate pH 6.4; 2D-(1H,15N)-HSQC at 298 K; settings: both partners purified
human full-length Sirt1 = target: T1, human full-length Sirt1 (human, UniProt Q96EB6 1-747); test: cell-based or functional assay
T1 sequence (looked up): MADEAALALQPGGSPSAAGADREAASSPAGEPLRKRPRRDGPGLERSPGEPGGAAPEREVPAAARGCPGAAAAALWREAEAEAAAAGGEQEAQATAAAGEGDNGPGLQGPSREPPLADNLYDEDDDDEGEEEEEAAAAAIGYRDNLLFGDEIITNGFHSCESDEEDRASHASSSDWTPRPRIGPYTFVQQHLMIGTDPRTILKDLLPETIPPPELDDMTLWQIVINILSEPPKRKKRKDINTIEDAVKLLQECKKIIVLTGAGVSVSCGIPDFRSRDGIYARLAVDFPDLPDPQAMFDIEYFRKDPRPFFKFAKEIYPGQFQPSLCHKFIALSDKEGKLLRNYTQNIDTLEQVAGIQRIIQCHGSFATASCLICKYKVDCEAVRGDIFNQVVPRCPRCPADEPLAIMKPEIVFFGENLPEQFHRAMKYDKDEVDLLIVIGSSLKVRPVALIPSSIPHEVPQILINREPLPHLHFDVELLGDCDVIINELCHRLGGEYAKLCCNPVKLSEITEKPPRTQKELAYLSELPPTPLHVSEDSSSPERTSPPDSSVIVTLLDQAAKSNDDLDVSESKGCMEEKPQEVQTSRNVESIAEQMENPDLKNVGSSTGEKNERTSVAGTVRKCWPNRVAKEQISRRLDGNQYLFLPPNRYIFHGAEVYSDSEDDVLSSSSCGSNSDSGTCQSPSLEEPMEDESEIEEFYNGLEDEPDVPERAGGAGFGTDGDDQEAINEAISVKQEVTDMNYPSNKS

human mini-Sirt1 (aa …) = target: B1; test: cell-based or functional assay
[2] = target: Sirt3 (as used in the activity assays) (human); test: cell-based or functional assay
Sirt2-(43-356) = target: T2, Sirt2-(43-356) (human, UniProt Q8IXJ6 43-356); test: cell-based or functional assay
T2 sequence (looked up): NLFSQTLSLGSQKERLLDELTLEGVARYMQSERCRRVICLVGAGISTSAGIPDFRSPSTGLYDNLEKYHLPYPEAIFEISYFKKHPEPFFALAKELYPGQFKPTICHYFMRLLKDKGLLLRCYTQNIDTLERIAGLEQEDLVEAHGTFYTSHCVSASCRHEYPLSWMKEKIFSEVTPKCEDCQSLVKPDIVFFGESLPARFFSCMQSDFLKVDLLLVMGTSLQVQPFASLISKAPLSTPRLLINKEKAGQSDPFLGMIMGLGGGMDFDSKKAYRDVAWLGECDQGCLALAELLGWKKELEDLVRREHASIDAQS

human Sirt3-(118-399) = target: T3, human Sirt3-(118-399) (human, UniProt Q9NTG7 118-399); test: crystal structure; 10 mg/mL Sirt3-(118-399) incubated with 2 mM peptide for 60 min at 20 °C; sitting-drop vapor diffusion at 20 °C (MES pH 6.0/PEG 200/PEG 3000 for ac-Tat-46-54; CHES pH 9.0/PEG 8000 for Tat-37-59); settings: both partners purified
T3 construct: human Sirt3, residues 118-399; The construct used for crystallization; also called hSirt3-(118-399); source: E. coli CodonPlus(DE3), pVFT3S, purified (nickel NTA, protease digestion, second nickel NTA, SEC)
T3 sequence (looked up): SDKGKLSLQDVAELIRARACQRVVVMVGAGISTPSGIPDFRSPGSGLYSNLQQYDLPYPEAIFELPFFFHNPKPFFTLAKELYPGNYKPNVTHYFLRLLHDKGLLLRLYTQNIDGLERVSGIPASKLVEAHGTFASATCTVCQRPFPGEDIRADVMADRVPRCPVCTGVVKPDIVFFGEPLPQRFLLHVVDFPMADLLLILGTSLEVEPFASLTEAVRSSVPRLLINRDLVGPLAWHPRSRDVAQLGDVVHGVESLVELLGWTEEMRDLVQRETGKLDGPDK

B1
binding result [1]: binds

B2
inhibition of fl-Sirt1 deacetylation of FdL substrate, FdL assay at substrate Km; IC50 (human full-length Sirt1): 3.6 µM
inhibition of fl-Sirt1 deacetylation of a p53-derived peptide, coupled enzymatic assay, 100 µM substrate; IC50 (human full-length Sirt1): ~20 µM
inhibition of mini-Sirt1 deacetylation of p53 substrate, coupled-enzyme assay at substrate Km; IC50 (human mini-Sirt1 (aa …)): 30 to 40 µM
inhibition of mini-Sirt1 in the FdL assay at substrate Km; IC50 (human mini-Sirt1 (aa …)): 2.3 µM
inhibition of Sirt3 in the FdL assay at substrate Km; IC50 [2]: 15.9 µM
inhibition of Sirt2 in the FdL assay at substrate Km; IC50 (Sirt2-(43-356)): 11 µM

B3: ac-Tat-46–54 (peptide)
peptide: SYGRK(Ac)KRRQ
notes: HIV1 Tat, residues 46-54, acetylated at Lys50; also called Tat substrate peptide
binding result (human Sirt3-(118-399)): binds
